# Reference: publication PMC11417369, “DNA sequence and chromatin differentiate sequence-specific transcription factor binding in the human malaria parasite Plasmodium falciparum”
# T1: HDP1 homeodomain-like (Plasmodium falciparum, UniProt Q8IKH4 2990-3078)
# T1 sequence: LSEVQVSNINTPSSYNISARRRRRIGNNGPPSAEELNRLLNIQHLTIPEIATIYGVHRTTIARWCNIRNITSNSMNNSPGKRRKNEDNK
# B1: GTGCAC_negctrl_site154 (dsDNA)
# DNA 1: AATAGTATTCACAAAGTTTTATATAATAAATATAAA
# DNA 2: TTTATATTTATTATATAAAACTTTGTGAATACTATT
# B2: GTGCAC_negctrl_site27 (dsDNA)
# DNA 1: ACATATGTATGAATATCAAAAAATCCCTATTTAATG
# DNA 2: CATTAAATAGGGATTTTTTGATATTCATACATATGT
# B3: GTGCAC_negctrl_site39 (dsDNA)
# DNA 1: AAACAGCATGGTATACCTATAAAATATATATACTAA
# DNA 2: TTAGTATATATATTTTATAGGTATACCATGCTGTTT
# B4: GTGCAC_negctrl_site305 (dsDNA)
# DNA 1: ATTTATATAAAATTAAAATAATACAAATTTATTCAT
# DNA 2: ATGAATAAATTTGTATTATTTTAATTTTATATAAAT
# B5: GTGCAC_negctrl_site641 (dsDNA)
# DNA 1: TTTTCTTGACCTATTATTCTTCTCATAGTATAATAT
# DNA 2: ATATTATACTATGAGAAGAATAATAGGTCAAGAAAA
# B6: GTGCAC_negctrl_site177 (dsDNA)
# DNA 1: TCACAAAAAGAACATTGATATTATTATAAAATCGTC
# DNA 2: GACGATTTTATAATAATATCAATGTTCTTTTTGTGA
# B7: GTGCAC_negctrl_site298 (dsDNA)
# DNA 1: TTTTAACAAAACTAAATAATCATATATATAAGATAT
# DNA 2: ATATCTTATATATATGATTATTTAGTTTTGTTAAAA
# B8: GTGCAC_negctrl_site601 (dsDNA)
# DNA 1: TAAGCCAAGGGATAAATAAAATAACAAAATGAAATC
# DNA 2: GATTTCATTTTGTTATTTTATTTATCCCTTGGCTTA
# B9: GTGCAC_negctrl_site155 (dsDNA)
# DNA 1: AAATTTTTTAATTTTTCTCATTTAATTTAAAAATTA
# DNA 2: TAATTTTTAAATTAAATGAGAAAAATTAAAAAATTT
# B10: GTGCAC_negctrl_site175 (dsDNA)
# DNA 1: AAAATGTATGGAATGCTCTTTTTTAAGTATTATATA
# DNA 2: TATATAATACTTAAAAAAGAGCATTCCATACATTTT
# B11: GTGCAC_negctrl_site257 (dsDNA)
# DNA 1: TGCAAAAAAAAAAAAAAAAAATATATGGAAATATAT
# DNA 2: ATATATTTCCATATATTTTTTTTTTTTTTTTTTGCA
# B12: GTGCAC_negctrl_site614 (dsDNA)
# DNA 1: TATTTAGACATAACAAATAGACTAACAAAAGATTTA
# DNA 2: TAAATCTTTTGTTAGTCTATTTGTTATGTCTAAATA
# B13: GTGCAC_negctrl_site342 (dsDNA)
# DNA 1: TATTTATATAATCCTATAATATTACTACTATCTTTA
# DNA 2: TAAAGATAGTAGTAATATTATAGGATTATATAAATA
# B14: GTGCAC_negctrl_site13 (dsDNA)
# DNA 1: AAAAAAAAAAATATATTAAAATAAAAAATATTAACA
# DNA 2: TGTTAATATTTTTTATTTTAATATATTTTTTTTTTT
# B15: GTGCAC_negctrl_site122 (dsDNA)
# DNA 1: ATCTTAGTTGAAATATAGAATTTATAATAAAAGTTA
# DNA 2: TAACTTTTATTATAAATTCTATATTTCAACTAAGAT
# B16: GTGCAC_negctrl_site245 (dsDNA)
# DNA 1: TTTTATATCTAGTTTATATTTCTTAAATAAATAAAT
# DNA 2: ATTTATTTATTTAAGAAATATAAACTAGATATAAAA
# Target: T1, HDP1 homeodomain-like
# Assay: gcPBM; about 25 ug protein; PBS, 1% milk, 0.2 mg/ml BSA, salmon testes DNA, 0.03% Triton X-100
# Details: tags: N-terminal GST (pGEX-4T-1), kept; chain copies: 2; label: surface-attached array probe
row,Binder,binding signal
1,B1,"5.94 ln median PBM intensity, better of two orientations"
2,B2,"6.3 ln median PBM intensity, better of two orientations"
3,B3,"6.18 ln median PBM intensity, better of two orientations"
4,B4,"6.1 ln median PBM intensity, better of two orientations"
5,B5,"6.18 ln median PBM intensity, better of two orientations"
6,B6,"6.14 ln median PBM intensity, better of two orientations"
7,B7,"6.21 ln median PBM intensity, better of two orientations"
8,B8,"6.27 ln median PBM intensity, better of two orientations"
9,B9,"5.71 ln median PBM intensity, better of two orientations"
10,B10,"6.2 ln median PBM intensity, better of two orientations"
11,B11,"6.13 ln median PBM intensity, better of two orientations"
12,B12,"6.13 ln median PBM intensity, better of two orientations"
13,B13,"6.28 ln median PBM intensity, better of two orientations"
14,B14,"6.05 ln median PBM intensity, better of two orientations"
15,B15,"6.01 ln median PBM intensity, better of two orientations"
16,B16,"6.07 ln median PBM intensity, better of two orientations"

# Target: AP2-I D3 (Plasmodium falciparum, UniProt Q8IJW6 910-1027)
# Assay: as above
# Details: tags: N-terminal GST (pGEX-4T-1), kept; label: surface-attached array probe
row,Binder,binding signal
1,B1,"6.96 ln median PBM intensity, better of two orientations"
2,B2,"6.97 ln median PBM intensity, better of two orientations"
3,B3,"7.07 ln median PBM intensity, better of two orientations"
4,B4,"7 ln median PBM intensity, better of two orientations"
5,B5,"7.08 ln median PBM intensity, better of two orientations"
6,B6,"7 ln median PBM intensity, better of two orientations"
7,B7,"6.97 ln median PBM intensity, better of two orientations"
8,B8,"7.02 ln median PBM intensity, better of two orientations"
9,B9,"7.03 ln median PBM intensity, better of two orientations"
10,B10,"6.96 ln median PBM intensity, better of two orientations"
11,B11,"6.92 ln median PBM intensity, better of two orientations"
12,B12,"6.94 ln median PBM intensity, better of two orientations"
13,B13,"6.86 ln median PBM intensity, better of two orientations"
14,B14,"6.95 ln median PBM intensity, better of two orientations"
15,B15,"7.07 ln median PBM intensity, better of two orientations"
16,B16,"7.05 ln median PBM intensity, better of two orientations"
